Experimental data from patent US20130280282A1, “DR5 LIGAND DRUG CONJUGATES” (Daiichi Sankyo Co., Ltd., priority 2012, published 2013).

What was measured:
[1] = target: T1, recombinant soluble DR5 protein (rsDR5) (human, UniProt O14763 56-183); assay: SPR, BIAcore 3000; antibody captured by anti-human IgG (Fc) on CM5 chip, rsDR5 0.3-85 nM as analyte
T1 construct: Expressed in E. coli from pET21b(+)-sDR5 and purified on Ni-NTA; also called DR5 extracellular domain protein
Procedure: (§1) For the direct coupling of anti-human IgG (Fc), CM5 sensor chips and the reference flow cells were coated with ˜1500-2000 RU in HBS-EP+(10 mM HEPES buffer, pH 7.4, 0.15 M NaCl, 3 mM EDTA, and 0.05% Surfactant P20). […] For regeneration, 3 M MgCl₂ was loaded at flow rate of 10 μl/min for 30 sec. All sensograms were globally fitted using BIAevaluation software 3.1 (Biacore) to determine the dissociation constant KD (KD=koff/kₒₙ).

[2] = target: T1, recombinant soluble DR5 protein (rsDR5); assay: SPR, BIAcore 3000; conjugate captured by anti-human IgG (Fc) on CM5 chip, rsDR5 0.3-85 nM as analyte
Procedure: as §1

B1: hB273 antibody (humanized B273) (antibody, human IgG1, kappa, V domains shown)
VH: EVQLVQSGAEVKKPGASVKVSCKASGYSFIGYFMNWMKQSPGMSLEWIGRFNPYNEDTFYNQKFKGKATLTVDKSTSTAYMELSSLRSEDTAVYFCARSAYYFDSGGYFDYWGQGTLVTVSS
VL: DIVMTQSPLSLPVTPGEPASISCRSSQSLVHSNKNTYLHWYLQKPGQSPQLLIYKVSNRFSGVPDRFSGSGSGTDFTLKISRVEAEDVGVYYCSQSTHVPWTFGPGTKVEIKR
notes: Anti-DR5 antibody
Work on B1 yielded a Kd [1] of 2.6 nM and a kon [1] of 2.6e+06 M⁻¹ s⁻¹.

B2: hB273-vc-MMAE (antibody drug conjugate of hB273 conjugated with mc-vc-MMAE) (antibody, V domains shown)
VH: EVQLVQSGAEVKKPGASVKVSCKASGYSFIGYFMNWMKQSPGMSLEWIGRFNPYNEDTFYNQKFKGKATLTVDKSTSTAYMELSSLRSEDTAVYFCARSAYYFDSGGYFDYWGQGTLVTVSS
VL: DIVMTQSPLSLPVTPGEPASISCRSSQSLVHSNKNTYLHWYLQKPGQSPQLLIYKVSNRFSGVPDRFSGSGSGTDFTLKISRVEAEDVGVYYCSQSTHVPWTFGPGTKVEIKR
modifications: mc-vc-MMAE drug-linker on cysteine thiols freed by partial TCEP reduction; average about 3.5 to 4.5 drug-linker units per antibody; positions not given
notes: Antibody drug conjugate of hB273; also called hB273-veMMAE
B2 was tested, and the Kd [2] was 3.2 nM.
